According to US20100260668A1 (published 2010):

How the values were obtained:
[1] = target: recombinant human HGF (human, UniProt P14210 32-728); test: cell-based or functional assay
[2] = target: biotinylated VEGF (UniProt P15692-4 27-191, limits assumed, biotinylated); test: VEGF capture ELISA, DVD-Ig captured by anti-human Fc, biotinylated VEGF
[3] = target: T1, biotin-labeled human DLL4 extracellular domain (human, UniProt Q9NR61 27-529, biotin-labeled); test: DLL4 capture ELISA, DVD-Ig captured by anti-human Fc, biotin-labeled human DLL4 ECD
T1 construct: extracellular domain

[4] = target: T2, placental growth factor (PLGF) (UniProt P49763-2 21-149, limits assumed); test: ligand-receptor binding competition assay, PlGF binding to VEGFR1; N-terminal VD
T2 construct: also called P1GF
T2 sequence (looked up): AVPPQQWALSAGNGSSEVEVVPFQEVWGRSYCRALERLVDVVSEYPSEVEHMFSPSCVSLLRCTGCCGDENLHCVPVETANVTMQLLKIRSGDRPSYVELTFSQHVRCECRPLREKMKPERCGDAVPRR

recombinant human HGF, sequence (P14210 32-728 limits assumed): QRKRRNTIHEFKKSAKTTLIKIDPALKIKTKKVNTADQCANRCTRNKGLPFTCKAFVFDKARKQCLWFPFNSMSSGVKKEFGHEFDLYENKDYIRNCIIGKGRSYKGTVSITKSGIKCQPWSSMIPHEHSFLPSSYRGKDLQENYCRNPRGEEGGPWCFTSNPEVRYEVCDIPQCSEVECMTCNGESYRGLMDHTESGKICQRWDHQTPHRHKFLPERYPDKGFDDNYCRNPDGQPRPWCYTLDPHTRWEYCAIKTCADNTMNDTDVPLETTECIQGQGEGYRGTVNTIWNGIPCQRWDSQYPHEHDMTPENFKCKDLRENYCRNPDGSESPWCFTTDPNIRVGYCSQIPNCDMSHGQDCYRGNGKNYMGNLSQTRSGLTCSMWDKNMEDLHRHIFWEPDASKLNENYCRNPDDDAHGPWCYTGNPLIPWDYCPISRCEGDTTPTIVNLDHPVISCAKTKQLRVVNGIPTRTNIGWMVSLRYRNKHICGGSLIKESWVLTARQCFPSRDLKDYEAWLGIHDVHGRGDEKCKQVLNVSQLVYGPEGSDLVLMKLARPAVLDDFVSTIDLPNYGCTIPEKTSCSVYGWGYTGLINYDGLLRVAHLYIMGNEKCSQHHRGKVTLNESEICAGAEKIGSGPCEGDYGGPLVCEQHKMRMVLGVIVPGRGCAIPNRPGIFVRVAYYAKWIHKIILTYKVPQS
biotinylated VEGF, sequence (P15692 other isoform, or with tags, fused parts or gaps limits assumed): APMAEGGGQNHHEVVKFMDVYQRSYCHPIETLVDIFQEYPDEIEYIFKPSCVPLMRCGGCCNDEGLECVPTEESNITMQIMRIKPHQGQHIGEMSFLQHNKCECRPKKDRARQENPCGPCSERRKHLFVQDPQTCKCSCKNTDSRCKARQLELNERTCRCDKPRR

B1: AB012 (antibody, human IgG1, kappa, V domains shown)
VH: QVQLVESGGGLVKPGGSLRLSCAASGFTFSDYYMSWIRQAPGKGLEWVSYISSSGSTIYYADSVKGRFTISRDNAKNSLYLQMNSLRAEDTAVYYCARDEYNSGWYVLFDYWGQGTLVTVSS
VL: DIQMTQSPSSVSASVGDRVTITCRASQGISSWLAWYQQKPGKAPNLLIYEASSLQSGVPSRFGGSGSGTDFTLTISSLQPEDFATYYCQQANGFPWTFGQGTKVEIKR
- Inhibition Of Akt Phosphorylation (% Inhibition At 0.67 nM Ab/DVD) [1]: 79%
- Inhibition Of Akt Phosphorylation (% Inhibition At 6.7 nM Ab/DVD) [1]: 110%
- Inhibition Of Akt Phosphorylation (% Inhibition At 67 nM Ab/DVD) [1]: 106%

B2: DVD045 (bispecific antibody, human IgG1, kappa)
heavy: not shown
light: DIQMTQSPSSLSASVGDRVTITCSASQDISNYLNWYQQKPGKAPKVLIYFTSSLHSGVPSRFSGSGSGTDFTLTISSLQPEDFATYYCQQYSTVPWTFGQGTKVEIKRTVAAPDIQMTQSPSSVSASVGDRVTITCRASQGISSWLAWYQQKPGKAPNLLIYEASSLQSGVPSRFGGSGSGTDFTLTISSLQPEDFATYYCQQANGFPWTFGQGTKVEIKRTVAAPSVFIFPPSDEQLKSGTASVVCLLNNFYPREAKVQWKVDNALQSGNSQESVTEQDSKDSTYSLSSTLTLSKADYEKHKVYACEVTHQGLSSPVTKSFNRGEC
- Inhibition Of Akt Phosphorylation (% Inhibition At 0.67 nM Ab/DVD) [1]: -15%
- Inhibition Of Akt Phosphorylation (% Inhibition At 6.7 nM Ab/DVD) [1]: -2%
- Inhibition Of Akt Phosphorylation (% Inhibition At 67 nM Ab/DVD) [1]: 64%

B3: AB008 (antibody, human IgG1, kappa, V domains shown)
VH: QVQLVQSGAEVKKPGSSVKVSCKASGYTFTSYWLHWVRQAPGQGLEWIGYINPRNDYTEYNQNFKDKATITADESTNTAYMELSSLRSEDTAFYFCARRDITTFYWGQGTTVTVSS
VL: DIQLTQSPSSLSASVGDRVTMSCKSSQSVLYSANHKNYLAWYQQKPGKAPKLLIYWASTRESGVPSRFSGSGSGTDFTFTISSLQPEDIATYYCHQYLSSWTFGGGTKLEIKR
- Inhibition Of Akt Phosphorylation (% Inhibition At 6.7 nM Ab/DVD) [1]: -13%
- Inhibition Of Akt Phosphorylation (% Inhibition At 67 nM Ab/DVD) [1]: 8%

B4: DVD470 (bispecific antibody, human IgG1, kappa)
heavy: not shown
light: DIQMTQSPSSLSASVGDRVTITCSASQDISNYLNWYQQKPGKAPKVLIYFTSSLHSGVPSRFSGSGSGTDFTLTISSLQPEDFATYYCQQYSTVPWTFGQGTKVEIKRTVAAPSVFIFPPDIQMTQSPSSLSASVGDRVTITCRASQDVSTAVAWYQQKPGKAPKLLIYSASFLYSGVPSRFSGSGSGTDFTLTISSLQPEDFATTYYCQQSYTGTVTFGQGTKVEIKRTVAAPSVFIFPPSDEQLKSGTASVVCLLNNFYPREAKVQWKVDNALQSGNSQESVTEQDSKDSTYSLSSTLTLSKADYEKHKVYACEVTHQGLSSPVTKSFNRGEC
notes: DVD-Ig, HC long / LC long; DLL4 domain C-terminal; also called VEGF / DLL4 DVD-Ig; DVD470H
- EC50 [2]: 0.27 nM
- EC50 [3]: 0.16 nM

B5: DVD476 (bispecific antibody, human IgG1, kappa)
heavy: not shown
light: DIQMTQSPSSLSASVGDRVTITCSASQDISNYLNWYQQKPGKAPKVLIYFTSSLHSGVPSRFSGSGSGTDFTLTISSLQPEDFATYYCQQYSTVPWTFGQGTKVEIKRTVAAPDIQMTQSPSSLSASVGDRVTITCRASQDVSTAVAWYQQKPGKAPKLLIYSASFLYSGVPSRFSGSGSGTDFTLTISSLQPEDFATTYYCQQSYTGTVTFGQGTKVEIKRTVAAPSVFIFPPSDEQLKSGTASVVCLLNNFYPREAKVQWKVDNALQSGNSQESVTEQDSKDSTYSLSSTLTLSKADYEKHKVYACEVTHQGLSSPVTKSFNRGEC
notes: DVD-Ig, HC long / LC short; DLL4 domain C-terminal; also called VEGF / DLL4 DVD-Ig; DVD476H
- EC50 [2]: 0.22 nM
- EC50 [3]: 0.21 nM

B6: DVD482 (bispecific antibody, human IgG1, kappa)
heavy: not shown
light: DIQMTQSPSSLSASVGDRVTITCSASQDISNYLNWYQQKPGKAPKVLIYFTSSLHSGVPSRFSGSGSGTDFTLTISSLQPEDFATYYCQQYSTVPWTFGQGTKVEIKRTVAAPSVFIFPPDIQMTQSPSSLSASVGDRVTITCRASQDVSTAVAWYQQKPGKAPKLLIYSASFLYSGVPSRFSGSGSGTDFTLTISSLQPEDFATTYYCQQSYTGTVTFGQGTKVEIKRTVAAPSVFIFPPSDEQLKSGTASVVCLLNNFYPREAKVQWKVDNALQSGNSQESVTEQDSKDSTYSLSSTLTLSKADYEKHKVYACEVTHQGLSSPVTKSFNRGEC
notes: DVD-Ig, HC short / LC long; DLL4 domain C-terminal; also called VEGF / DLL4 DVD-Ig; DVD482H
- EC50 [2]: 0.22 nM
- EC50 [3]: 0.17 nM

B7: DVD474 (bispecific antibody, human IgG1, kappa)
heavy: not shown
light: DIQMTQSPSSLSASVGDRVTITCRASQVIRRSLAWYQQKPGKAPKLLIYAASNLASGVPSRFSGSGSGTDFTLTISSLQPEDFATYYCQQSNTSPLTFGQGTKVEIKRTVAAPSVFIFPPDIQMTQSPSSLSASVGDRVTITCRASQDVSTAVAWYQQKPGKAPKLLIYSASFLYSGVPSRFSGSGSGTDFTLTISSLQPEDFATTYYCQQSYTGTVTFGQGTKVEIKRTVAAPSVFIFPPSDEQLKSGTASVVCLLNNFYPREAKVQWKVDNALQSGNSQESVTEQDSKDSTYSLSSTLTLSKADYEKHKVYACEVTHQGLSSPVTKSFNRGEC
notes: DVD-Ig, HC long / LC long; DLL4 domain C-terminal; also called VEGF / DLL4 DVD-Ig; DVD474H
- EC50 [2]: 1.65 nM
- EC50 [3]: 0.14 nM

B8: DVD573 (bispecific antibody, human IgG1, kappa)
heavy: not shown
light: DIVLTQSPDSLAVSLGERVTMNCKSSQSLLNSGMRKSFLAWYQQKPGQSPKLLIYWASTRESGVPDRFTGSGSGTDFTLTISSVQAEDVAVYYCKQSYHLFTFGSGTKLEIKRTVAAPDIQMTQSPSSLSASVGDRVTITCRASQDVSTAVAWYQQKPGKAPKLLIYSASFLYSGVPSRFSGSGSGTDFTLTISSLQPEDFATYYCQQSYTTPPTFGQGTKVEIKRTVAAPSVFIFPPSDEQLKSGTASVVCLLNNFYPREAKVQWKVDNALQSGNSQESVTEQDSKDSTYSLSSTLTLSKADYEKHKVYACEVTHQGLSSPVTKSFNRGEC
notes: also called DVD573H; DVD573L
- IC50 [4]: 2.59 nM

B9: DVD575 (bispecific antibody, human IgG1, kappa)
heavy: not shown
light: DIVLTQSPDSLAVSLGERVTMNCKSSQSLLNSGMRKSFLAWYQQKPGQSPKLLIYWASTRESGVPDRFTGSGSGTDFTLTISSVQAEDVAVYYCKQSYHLFTFGSGTKLEIKRTVAAPDIQMTQSPSSLSASVGDRVTITCRASQVIRRSLAWYQQKPGKAPKLLIYAASNLASGVPSRFSGSGSGTDFTLTISSLQPEDFATYYCQQSNTSPLTFGQGTKVEIKRTVAAPSVFIFPPSDEQLKSGTASVVCLLNNFYPREAKVQWKVDNALQSGNSQESVTEQDSKDSTYSLSSTLTLSKADYEKHKVYACEVTHQGLSSPVTKSFNRGEC
notes: DVD-Ig, N-term PlGF (AB047) / C-term VEGF (AB071); also called DVD575H; DVD575L
- IC50 [4]: 2.9 nM

B10: DVD581 (bispecific antibody, human IgG1, kappa)
heavy: not shown
light: DIVLTQSPDSLAVSLGERVTMNCKSSQSLLNSGMRKSFLAWYQQKPGQSPKLLIYWASTRESGVPDRFTGSGSGTDFTLTISSVQAEDVAVYYCKQSYHLFTFGSGTKLEIKRTVAAPSVFIFPPDIQMTQSPSSLSASVGDRVTITCRASQDVSTAVAWYQQKPGKAPKLLIYSASFLYSGVPSRFSGSGSGTDFTLTISSLQPEDFATYYCQQSYTTPPTFGQGTKVEIKRTVAAPSVFIFPPSDEQLKSGTASVVCLLNNFYPREAKVQWKVDNALQSGNSQESVTEQDSKDSTYSLSSTLTLSKADYEKHKVYACEVTHQGLSSPVTKSFNRGEC
notes: also called DVD581H; DVD581L
- IC50 [4]: 3.5 nM

B11: DVD583 (bispecific antibody, human IgG1, kappa)
heavy: not shown
light: DIVLTQSPDSLAVSLGERVTMNCKSSQSLLNSGMRKSFLAWYQQKPGQSPKLLIYWASTRESGVPDRFTGSGSGTDFTLTISSVQAEDVAVYYCKQSYHLFTFGSGTKLEIKRTVAAPSVFIFPPDIQMTQSPSSLSASVGDRVTITCRASQVIRRSLAWYQQKPGKAPKLLIYAASNLASGVPSRFSGSGSGTDFTLTISSLQPEDFATYYCQQSNTSPLTFGQGTKVEIKRTVAAPSVFIFPPSDEQLKSGTASVVCLLNNFYPREAKVQWKVDNALQSGNSQESVTEQDSKDSTYSLSSTLTLSKADYEKHKVYACEVTHQGLSSPVTKSFNRGEC
notes: DVD-Ig, N-term PlGF (AB047) / C-term VEGF (AB071); also called DVD583H; DVD583L
- IC50 [4]: 3.25 nM

B12: DVD589 (bispecific antibody, human IgG1, kappa)
heavy: not shown
light: DIVLTQSPDSLAVSLGERVTMNCKSSQSLLNSGMRKSFLAWYQQKPGQSPKLLIYWASTRESGVPDRFTGSGSGTDFTLTISSVQAEDVAVYYCKQSYHLFTFGSGTKLEIKRTVAAPDIQMTQSPSSLSASVGDRVTITCRASQDVSTAVAWYQQKPGKAPKLLIYSASFLYSGVPSRFSGSGSGTDFTLTISSLQPEDFATYYCQQSYTTPPTFGQGTKVEIKRTVAAPSVFIFPPSDEQLKSGTASVVCLLNNFYPREAKVQWKVDNALQSGNSQESVTEQDSKDSTYSLSSTLTLSKADYEKHKVYACEVTHQGLSSPVTKSFNRGEC
notes: also called DVD589VH; DVD589VL
- IC50 [4]: 2.87 nM

B13: DVD591 (bispecific antibody, human IgG1, kappa)
heavy: not shown
light: DIVLTQSPDSLAVSLGERVTMNCKSSQSLLNSGMRKSFLAWYQQKPGQSPKLLIYWASTRESGVPDRFTGSGSGTDFTLTISSVQAEDVAVYYCKQSYHLFTFGSGTKLEIKRTVAAPDIQMTQSPSSLSASVGDRVTITCRASQVIRRSLAWYQQKPGKAPKLLIYAASNLASGVPSRFSGSGSGTDFTLTISSLQPEDFATYYCQQSNTSPLTFGQGTKVEIKRTVAAPSVFIFPPSDEQLKSGTASVVCLLNNFYPREAKVQWKVDNALQSGNSQESVTEQDSKDSTYSLSSTLTLSKADYEKHKVYACEVTHQGLSSPVTKSFNRGEC
notes: DVD-Ig, N-term PlGF (AB047) / C-term VEGF (AB071); also called DVD591VH; DVD591VL
- IC50 [4]: 3.23 nM

B14: DVD597 (bispecific antibody, human IgG1, kappa)
heavy: not shown
light: DIVLTQSPDSLAVSLGERVTMNCKSSQSLLNSGMRKSFLAWYQQKPGQSPKLLIYWASTRESGVPDRFTGSGSGTDFTLTISSVQAEDVAVYYCKQSYHLFTFGSGTKLEIKRTVAAPSVFIFPPDIQMTQSPSSLSASVGDRVTITCRASQDVSTAVAWYQQKPGKAPKLLIYSASFLYSGVPSRFSGSGSGTDFTLTISSLQPEDFATYYCQQSYTTPPTFGQGTKVEIKRTVAAPSVFIFPPSDEQLKSGTASVVCLLNNFYPREAKVQWKVDNALQSGNSQESVTEQDSKDSTYSLSSTLTLSKADYEKHKVYACEVTHQGLSSPVTKSFNRGEC
notes: also called DVD597VH; DVD597VL
- IC50 [4]: 2.94 nM

B15: DVD599 (bispecific antibody, human IgG1, kappa)
heavy: not shown
light: DIVLTQSPDSLAVSLGERVTMNCKSSQSLLNSGMRKSFLAWYQQKPGQSPKLLIYWASTRESGVPDRFTGSGSGTDFTLTISSVQAEDVAVYYCKQSYHLFTFGSGTKLEIKRTVAAPSVFIFPPDIQMTQSPSSLSASVGDRVTITCRASQVIRRSLAWYQQKPGKAPKLLIYAASNLASGVPSRFSGSGSGTDFTLTISSLQPEDFATYYCQQSNTSPLTFGQGTKVEIKRTVAAPSVFIFPPSDEQLKSGTASVVCLLNNFYPREAKVQWKVDNALQSGNSQESVTEQDSKDSTYSLSSTLTLSKADYEKHKVYACEVTHQGLSSPVTKSFNRGEC
notes: DVD-Ig, N-term PlGF (AB047) / C-term VEGF (AB071); also called DVD599VH; DVD599VL
- IC50 [4]: 3.19 nM
